Measured values: publication PMC9482650, “Quantitative fragmentomics allow affinity mapping of interactomes” (Nature Communications, 2022)

T1: APBA1_1, Q02410
T1 sequence (Q02410 651-752, limits assumed, looked up): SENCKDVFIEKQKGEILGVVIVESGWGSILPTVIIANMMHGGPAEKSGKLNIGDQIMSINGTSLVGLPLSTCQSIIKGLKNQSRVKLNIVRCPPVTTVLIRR

T2: APBA1_2, Q02410
T2 sequence (Q02410 742-832, limits assumed, looked up): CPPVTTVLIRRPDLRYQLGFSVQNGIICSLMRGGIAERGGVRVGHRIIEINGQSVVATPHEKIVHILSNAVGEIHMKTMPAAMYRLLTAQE

T3: DFNB31_2, Q9P202
T3 sequence (Q9P202 274-371, limits assumed, looked up): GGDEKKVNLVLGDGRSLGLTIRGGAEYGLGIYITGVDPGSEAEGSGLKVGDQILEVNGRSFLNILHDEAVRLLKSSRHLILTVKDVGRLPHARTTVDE

T4: DLG3_3, Q92796
T4 sequence (Q92796 374-475, limits assumed, looked up): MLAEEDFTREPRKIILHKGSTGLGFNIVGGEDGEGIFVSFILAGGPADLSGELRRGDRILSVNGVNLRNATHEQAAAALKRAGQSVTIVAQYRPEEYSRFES

T5: DVL3, Q92997
T5 sequence (Q92997 244-331, limits assumed, looked up): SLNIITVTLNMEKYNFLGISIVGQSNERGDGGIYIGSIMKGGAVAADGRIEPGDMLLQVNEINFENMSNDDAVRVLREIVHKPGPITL

T6: FRMPD1, Q5SYB0
T6 sequence (Q5SYB0 52-145, limits assumed, looked up): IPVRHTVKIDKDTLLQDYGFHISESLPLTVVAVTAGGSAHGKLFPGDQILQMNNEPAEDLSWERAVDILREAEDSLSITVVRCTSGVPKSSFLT

T7: GRIP1_5, Q9Y3R0
T7 sequence (Q9Y3R0 568-668, limits assumed, looked up): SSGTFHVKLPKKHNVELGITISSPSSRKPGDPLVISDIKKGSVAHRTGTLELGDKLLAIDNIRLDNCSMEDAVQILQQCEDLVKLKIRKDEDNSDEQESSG

T8: HTRA3, P83110
T8 sequence (P83110 354-453, limits assumed, looked up): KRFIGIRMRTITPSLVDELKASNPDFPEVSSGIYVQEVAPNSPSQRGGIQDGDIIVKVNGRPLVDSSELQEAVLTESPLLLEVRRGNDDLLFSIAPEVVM

T9: LNX2_2, Q8N448
T9 sequence (Q8N448 334-432, limits assumed, looked up): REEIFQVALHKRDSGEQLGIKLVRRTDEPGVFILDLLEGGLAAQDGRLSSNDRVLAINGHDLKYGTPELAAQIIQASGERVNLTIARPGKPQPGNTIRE


Legend:
Assay in all cases: holdup assay
Set-up in all cases: key: below the threshold = too weak to quantify, mostly under pKd 3.1 to 4
Details in all cases: plain residues with an end cap or a label only (N-terminal biotin on a linker: ado-ado)
AHNAK1, Q09666 = target: AHNAK1, Q09666
APBA1_1, Q02410 = target: T1, APBA1_1, Q02410
APBA1_2, Q02410 = target: T2, APBA1_2, Q02410
DFNB31_2, Q9P202 = target: T3, DFNB31_2, Q9P202
DLG1_2, Q12959 = target: DLG1_2, Q12959
DLG1_3, Q12959 = target: DLG1_3, Q12959
DLG3_3, Q92796 = target: T4, DLG3_3, Q92796
DVL3, Q92997 = target: T5, DVL3, Q92997
FRMPD1, Q5SYB0 = target: T6, FRMPD1, Q5SYB0
FRMPD3, Q5JV73 = target: FRMPD3, Q5JV73
GOPC, Q9HD26 = target: GOPC, Q9HD26
GRIP1_5, Q9Y3R0 = target: T7, GRIP1_5, Q9Y3R0
GRIP2_3, Q9C0E4 = target: GRIP2_3, Q9C0E4
HTRA3, P83110 = target: T8, HTRA3, P83110
Inadl_10, Q8NI35 = target: Inadl_10, Q8NI35
Inadl_4, Q8NI35 = target: Inadl_4, Q8NI35
Inadl_5, Q8NI35 = target: Inadl_5, Q8NI35
Inadl_8, Q8NI35 = target: Inadl_8, Q8NI35
Inadl_9, Q8NI35 = target: Inadl_9, Q8NI35
LNX2_2, Q8N448 = target: T9, LNX2_2, Q8N448
NHERF4_1, Q86UT5-2 = target: NHERF4_1, Q86UT5-2
NOS1, P29475 = target: NOS1, P29475
PDLIM1, O00151 = target: PDLIM1, O00151
PDZRN4_1, Q6ZMN7 = target: PDZRN4_1, Q6ZMN7
PTPN3, P26045 = target: PTPN3, P26045
SCRIB_1, Q14160 = target: SCRIB_1, Q14160
SCRIB_3, Q14160 = target: SCRIB_3, Q14160
TJP1_3, Q07157 = target: TJP1_3, Q07157
TJP2_1, Q9UDY2 = target: TJP2_1, Q9UDY2
Sequence of TJP2_1, Q9UDY2 (Q9UDY2 24-128): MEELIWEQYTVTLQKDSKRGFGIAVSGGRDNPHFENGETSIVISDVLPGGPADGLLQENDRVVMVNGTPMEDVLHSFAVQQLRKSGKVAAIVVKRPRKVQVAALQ

Sequence of PTPN3, P26045 (P26045 505-587): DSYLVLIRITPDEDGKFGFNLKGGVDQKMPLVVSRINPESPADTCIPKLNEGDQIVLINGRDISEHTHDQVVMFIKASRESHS
Sequence of DLG1_2, Q12959 (Q12959 314-412): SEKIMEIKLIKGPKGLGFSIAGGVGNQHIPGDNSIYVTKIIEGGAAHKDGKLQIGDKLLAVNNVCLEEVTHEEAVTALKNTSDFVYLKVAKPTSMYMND
Sequence of Inadl_4, Q8NI35 (Q8NI35 547-651): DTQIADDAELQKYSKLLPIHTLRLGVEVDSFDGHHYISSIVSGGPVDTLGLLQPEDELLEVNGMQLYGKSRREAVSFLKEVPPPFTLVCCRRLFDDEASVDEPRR
Sequence of AHNAK1, Q09666 (Q09666 4-100): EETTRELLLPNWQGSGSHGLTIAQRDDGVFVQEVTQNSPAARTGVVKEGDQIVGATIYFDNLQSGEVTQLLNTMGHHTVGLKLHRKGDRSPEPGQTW
Sequence of Inadl_5, Q8NI35 (Q8NI35 673-780): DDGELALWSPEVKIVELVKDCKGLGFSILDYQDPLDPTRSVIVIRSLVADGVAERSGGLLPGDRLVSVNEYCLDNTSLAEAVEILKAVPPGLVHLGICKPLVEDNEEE
Sequence of DLG1_3, Q12959 (Q12959 457-571): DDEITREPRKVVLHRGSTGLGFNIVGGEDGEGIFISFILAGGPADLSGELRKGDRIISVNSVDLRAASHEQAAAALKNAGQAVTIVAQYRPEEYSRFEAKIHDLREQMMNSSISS
Sequence of Inadl_9, Q8NI35 (Q8NI35 1530-1615): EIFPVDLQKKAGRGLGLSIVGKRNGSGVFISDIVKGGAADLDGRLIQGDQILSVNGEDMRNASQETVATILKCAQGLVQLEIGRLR
Sequence of SCRIB_3, Q14160 (Q14160 999-1103): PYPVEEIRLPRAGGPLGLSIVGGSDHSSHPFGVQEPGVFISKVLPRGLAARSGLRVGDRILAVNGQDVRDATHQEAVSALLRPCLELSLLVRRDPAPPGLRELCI
Sequence of NOS1, P29475 (P29475 9-101): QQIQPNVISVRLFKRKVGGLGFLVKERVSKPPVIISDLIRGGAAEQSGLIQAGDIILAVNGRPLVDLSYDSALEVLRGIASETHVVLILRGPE
Sequence of FRMPD3, Q5JV73 (Q5JV73 12-100): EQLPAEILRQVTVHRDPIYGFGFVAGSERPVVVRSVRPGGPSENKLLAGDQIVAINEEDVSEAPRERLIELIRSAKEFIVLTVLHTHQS
Sequence of NHERF4_1, Q86UT5-2 (Q86UT5 other isoform, or with tags, fused parts or gaps): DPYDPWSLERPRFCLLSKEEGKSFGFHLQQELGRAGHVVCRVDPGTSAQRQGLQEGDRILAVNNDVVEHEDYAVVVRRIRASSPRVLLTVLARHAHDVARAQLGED
Sequence of TJP1_3, Q07157 (Q07157 416-512): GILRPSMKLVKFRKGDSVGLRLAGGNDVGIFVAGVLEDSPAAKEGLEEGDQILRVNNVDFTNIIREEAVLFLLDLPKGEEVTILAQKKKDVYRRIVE
Sequence of Inadl_10, Q8NI35 (Q8NI35 1673-1763): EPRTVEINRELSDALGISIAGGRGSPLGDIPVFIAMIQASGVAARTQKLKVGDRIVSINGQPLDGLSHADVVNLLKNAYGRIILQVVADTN
Sequence of PDZRN4_1, Q6ZMN7 (Q6ZMN7 213-318): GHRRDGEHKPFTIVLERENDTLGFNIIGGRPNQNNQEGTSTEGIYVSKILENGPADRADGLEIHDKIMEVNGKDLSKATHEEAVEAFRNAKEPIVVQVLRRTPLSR
Sequence of PDLIM1, O00151 (O00151 1-87): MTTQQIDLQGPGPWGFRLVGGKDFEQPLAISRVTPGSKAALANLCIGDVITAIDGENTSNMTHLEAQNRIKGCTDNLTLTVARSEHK
Sequence of Inadl_8, Q8NI35 (Q8NI35 1425-1530): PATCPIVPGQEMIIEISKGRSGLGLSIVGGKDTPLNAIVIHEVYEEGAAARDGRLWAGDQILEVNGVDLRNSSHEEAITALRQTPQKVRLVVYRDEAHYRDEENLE
Sequence of SCRIB_1, Q14160 (Q14160 718-814): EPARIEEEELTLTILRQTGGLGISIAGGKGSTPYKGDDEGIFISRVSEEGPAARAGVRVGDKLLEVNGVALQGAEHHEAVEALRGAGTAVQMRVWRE
Sequence of GRIP2_3, Q9C0E4 (Q9C0E4 238-339): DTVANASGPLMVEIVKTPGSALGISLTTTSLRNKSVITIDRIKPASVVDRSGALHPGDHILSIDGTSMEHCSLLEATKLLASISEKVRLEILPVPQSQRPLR

Binder	pKd (AHNAK1, Q09666)	pKd (APBA1_1, Q02410)	pKd (APBA1_2, Q02410)	pKd (DFNB31_2, Q9P202)	pKd (DLG1_2, Q12959)	pKd (DLG1_3, Q12959)	pKd (DLG3_3, Q92796)	pKd (DVL3, Q92997)	pKd (FRMPD1, Q5SYB0)	pKd (FRMPD3, Q5JV73)	pKd (GOPC, Q9HD26)	pKd (GRIP1_5, Q9Y3R0)	pKd (GRIP2_3, Q9C0E4)	pKd (HTRA3, P83110)	pKd (Inadl_10, Q8NI35)	pKd (Inadl_4, Q8NI35)	pKd (Inadl_5, Q8NI35)	pKd (Inadl_8, Q8NI35)	pKd (Inadl_9, Q8NI35)	pKd (LNX2_2, Q8N448)	also measured
LKDDELKTKL [SLCO1A2, P46721]	below the threshold	below the threshold	below the threshold	below the threshold	below the threshold	below the threshold	below the threshold	below the threshold	below the threshold	below the threshold	3.94	below the threshold	below the threshold	below the threshold	below the threshold	below the threshold	below the threshold	below the threshold	below the threshold	below the threshold	pKd (NHERF4_1, Q86UT5-2): 3.91; pKd (NOS1, P29475): 3.5; pKd (PDLIM1, O00151): below the threshold; pKd (PDZRN4_1, Q6ZMN7): below the threshold; pKd (PTPN3, P26045): below the threshold; pKd (SCRIB_1, Q14160): below the threshold; pKd (SCRIB_3, Q14160): 3.73; pKd (TJP1_3, Q07157): below the threshold; pKd (TJP2_1, Q9UDY2): below the threshold
SFISKKEWYV [NECTIN1, Q15223]	below the threshold	below the threshold	3.82	below the threshold	3.77	below the threshold	below the threshold	4.51	below the threshold	3.94	below the threshold	below the threshold	below the threshold	4.83	below the threshold	below the threshold	4.82	3.66	4.28	5.05	pKd (NHERF4_1, Q86UT5-2): below the threshold; pKd (NOS1, P29475): 3.6; pKd (PDLIM1, O00151): below the threshold; pKd (PDZRN4_1, Q6ZMN7): below the threshold; pKd (PTPN3, P26045): 3.96; pKd (SCRIB_1, Q14160): below the threshold; pKd (SCRIB_3, Q14160): below the threshold; pKd (TJP1_3, Q07157): below the threshold; pKd (TJP2_1, Q9UDY2): 4
PSVGSKKTVL [REELD1, A0A1B0GV85]	below the threshold	below the threshold	3.56	below the threshold	3.79	below the threshold	below the threshold	below the threshold	below the threshold	below the threshold	4.26	below the threshold	below the threshold	below the threshold	below the threshold	below the threshold	below the threshold	below the threshold	below the threshold	below the threshold	pKd (NHERF4_1, Q86UT5-2): 3.95; pKd (NOS1, P29475): 3.64; pKd (PDLIM1, O00151): below the threshold; pKd (PDZRN4_1, Q6ZMN7): below the threshold; pKd (PTPN3, P26045): 3.64; pKd (SCRIB_1, Q14160): below the threshold; pKd (SCRIB_3, Q14160): 3.6; pKd (TJP1_3, Q07157): below the threshold; pKd (TJP2_1, Q9UDY2): 4.1
DTKNYKQTSV [CRIPT, Q9P021]	below the threshold	below the threshold	3.73	3.74	5.07	5.26	5.16	below the threshold	below the threshold	below the threshold	3.87	below the threshold	below the threshold	below the threshold	below the threshold	below the threshold	below the threshold	4.66	below the threshold	3.66	pKd (NHERF4_1, Q86UT5-2): 3.53; pKd (NOS1, P29475): 3.63; pKd (PDLIM1, O00151): below the threshold; pKd (PDZRN4_1, Q6ZMN7): 4.12; pKd (PTPN3, P26045): 5.07; pKd (SCRIB_1, Q14160): 4.88; pKd (SCRIB_3, Q14160): 4.98; pKd (TJP1_3, Q07157): below the threshold; pKd (TJP2_1, Q9UDY2): below the threshold
DRIQSCLSDA [SBF1, O95248]	below the threshold	below the threshold	below the threshold	below the threshold	below the threshold	below the threshold	below the threshold	below the threshold	below the threshold	below the threshold	below the threshold	below the threshold	below the threshold	3.57	below the threshold	below the threshold	below the threshold	below the threshold	below the threshold	below the threshold	pKd (NHERF4_1, Q86UT5-2): below the threshold; pKd (NOS1, P29475): below the threshold; pKd (PDLIM1, O00151): below the threshold; pKd (PDZRN4_1, Q6ZMN7): below the threshold; pKd (PTPN3, P26045): 4.23; pKd (SCRIB_1, Q14160): below the threshold; pKd (SCRIB_3, Q14160): below the threshold; pKd (TJP1_3, Q07157): below the threshold; pKd (TJP2_1, Q9UDY2): below the threshold
